Data taken from patent US20240199758A1, “METHOD FOR ALLOWING IMMUNE CELLS INFILTRATION IN TUMORS” (Alethia Biotherapeutics Inc., priority 2021, published 2024).
Values joined by “and” are separate entries in the source; they are usually repeats but may differ in a detail not shown here. Equal values may be shown once. “Also recorded” adds a separate entry of the source.

Tests used:
[1] = tested on: frozen tissues from human; assay: Tissue cross-reactivity study, human tissues; format: binding; conditions: human tissue panel, 2 and 10 μg/mL
Experimental: (§1) In addition, a tissue cross-reactivity study was conducted to determine the potential cross-reactivity of AB-16B5 with frozen tissues from human, Rhesus monkey, and Sprague-Dawley rat tissues.

[2] = Non-clinical pharmacokinetics, single and repeat-dose studies in monkeys; format: in vivo, Rhesus monkeys
Source text: There was an approximate 70% increase in systemic exposure following repeated dosing from Day 1 to Day 26 which is consistent with the elimination half-life of AB-16B5 and the dosing intervals. […] The sCLU concentrations were generally back to their baseline levels after 3 to 5 days. The concurrent decrease in sCLU concentrations immediately following dosing with AB-16B5 is consistent with an antigen-sink phenomenon.

[3] = tested on: E-cadherin; assay: Phase I study: immunohistochemistry on paired tumor biopsies, E-cadherin; format: in vivo, human
Experimental: (§2) Immunohistochemistry studies were conducted on paired tumor biopsies to determine if the treatment with AB-16B5 was associated with a reacquisition of an epithelial phenotype.

[4] = tested on: human tumor biopsies; assay: Human tumor biopsies of patients treated with AB-16B5 as single agent (hematoxylin and eosin); format: in vivo; conditions: on-treatment biopsy after the second cycle
Experimental: In parallel human tumor biopsies of patients treated with AB-16B5 as single agent were analyzed (FIGS. 2B-2E). Needle biopsies obtained from a patient with metastatic thyroid cancer and form a patient with inoperable metastatic gastric cancer were sectioned and stained with hematoxylin and eosin. An on-treatment biopsy from a patient with thyroid cancer metastasic to the lungs was obtained after the second cycle treatment with AB-16B5. […] Hemosiderin-laden macrophages were observed inside necrotic areas some reflecting red blood cell extravasation associated with necrosis (not shown).

[5] = Non-clinical toxicity, weekly administration in rats; format: in vivo, Sprague-Dawley rats
Source text: This finding most likely reflects a slight antigenic stimulation by AB-16B5 in these 2 regional lymph nodes.

[6] = rhesus monkey, in vivo
[7] = tested on: frozen Sprague-Dawley rat tissues; assay: Tissue cross-reactivity study, Sprague-Dawley rat tissues; format: binding; conditions: Sprague-Dawley rat tissue panel, 2 and 10 μg/mL
Experimental: as §1

[8] = tested on: vimentin; assay: Phase I study: immunohistochemistry on paired tumor biopsies, vimentin; format: in vivo, human; conditions: Subject 007, advanced gastric cancer
Experimental: as §2

[9] = Phase I study AB-16B5-101: safety and tolerability
Experimental: The dose escalation was performed using 2 dose escalation schemes; the accelerated dose escalation scheme and the standard dose escalation scheme. Only 1 subject was enrolled in each of the first 2 cohorts as per protocol (accelerated dose escalation scheme).
Subjects received AB-16B5 by a 60-minute IV infusion once weekly on Days 1, 8 and 15 of each cycle of treatment.

[10] = Phase I study AB-16B5-101: plasma pharmacokinetics (non-compartmental analysis); format: in vivo, human; conditions: for AUC 0-t / Cmax / Thalf: mean; for AUC 0-t / Cmax / Thalf / Tmax: plasma; for Tmax: median;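 on AUC 0-t: ng·h/mL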
Source text: Plasma PK parameters for AB-16B5 were derived from the concentration-time profiles following the first dose of Cycle 1 and the first dose of Cycle 2 using a non-compartmental analysis (NCA) with Phoenix WinNonlin.

[11] = tested on: CA 15-3, CA-125, CA 19-9, CEA, LDH and PSA; assay: Phase I study: circulating tumor biomarkers; format: in vivo, human
Experimental: Several well-established circulating biomarkers were evaluated to monitor the response to therapy. They included CA 15-3, CA-125, CA 19-9, CEA, LDH and PSA.

[12] = thyroid cancer metastatic to the lungs, FIG. 2B

AB-16B5: humanized IgG2 monoclonal antibody targeting sCLU for the inhibition of cancer-associated EMT; light chain SEQ ID NO:11, heavy chain SEQ ID NO:12
AB-16B5 staining of tissue elements [1]: observed in a number of tissue elements | membrane staining [1]: no membrane staining was observed | systemic exposure versus dose ([2]; monkeys): increased with increasing dose levels in a generally greater than dose proportional manner | peak serum AB-16B5 concentrations ([2]; monkeys, infusion, single and repeat-dose): reached shortly after the start of infusion | systemic exposure once weekly versus twice weekly ([2]; monkeys, repeated dosing): no notable differences in systemic exposure | accumulation for AUC0-72 ([2]; repeated dosing): a lower extent of accumulation was observed | drug accumulation in terms of Cmax ([2]; repeated dosing): no evidence of drug accumulation | E-cadherin Expression in Post-Treatment ([3]; Subject 006, Breast, biopsy site Skin): Increase | E-cadherin Expression in Post-Treatment ([3]; Subject 007, Gastric, biopsy site Gastric): Increase | E-cadherin Expression in Post-Treatment ([3]; Subject 012, Breast, biopsy site Skin): Decrease | E-cadherin Expression in Post-Treatment ([3]; Subject 013, Prostate, biopsy site Bladder): No change | patients with increased E-cadherin expression after treatment ([3]; paired tumor biopsies): 2 pts | immune infiltrate in tumor fragments ([4]; metastatic gastric cancer, FIG. 2E): infiltrated by a mix neutrophilic and mononucleated immune cells infiltrate | immune infiltrate in tumor fragment [4, 12]: A lymphoplasmacytic infiltrate was observed along the edge of the fragment | necrosis of tumor fragments [4, 12]: essentially all tumor fragments were necrotic | incidence of minimal lymphoid hypercellularity, mandibular lymph node ([5]; rat, in vivo): 1/20 | incidence of minimal lymphoid hypercellularity, mesenteric lymph node ([5]; rat, in vivo): 2/20 | reversibility of lymphoid hypercellularity ([5]; rat, in vivo): complete reversibility | treatment-related clinical signs, changes in body weight, food consumption, ophthalmology, clinical pathology, organ weights ([5]; rat, in vivo): did not result in any treatment-related clinical signs | treatment-related macroscopic changes ([5]; rat, in vivo): no treatment-related macroscopic changes | No Observable Adverse Effect Level (NOAEL) ([5]; rats, weekly administration): 100 mg/kg/dose | emesis during infusion [6]: Few episodes of emesis | signs of overt toxicity [6]: did not result in any signs of overt toxicity | treatment-related effects on body weight, ophthalmology, electrocardiography and organ weight [6]: no treatment-related effects | animals with hepatocellular vacuolation in the liver ([6]; 100 mg/kg): 2 animals | AB-16B5 staining of tissue elements [7]: observed in a number of tissue elements | membrane staining [7]: no membrane staining was observed | vimentin expression after treatment [8]: loss of vimentin expression | dose-related trend in the incidence of AEs ([9]; 1.5 to 12.0 mg/kg): no dose-related trend | dose-limiting toxicity ([9]; 1.5 to 12.0 mg/kg once weekly, 15 subjects): No dose-limiting toxicity was observed; also recorded: No dose-limiting toxicities were identified | subjects reporting SAEs ([9]; 5 of 15 subjects): 33% | AEs of Grade 3 to 5 ([9]; 15 subjects): 12 | number of SAEs ([9]; 15 subjects): 6 and 5 | subjects reporting AEs of Grade 3 to 5 ([9]; 15 subjects): 8 subjects | total AEs reported ([9]; 15 subjects, all causalities): 167 | safety and tolerability ([9]; 60-minute IV weekly infusion, doses up to 12 mg/kg): safe and well tolerated | AEs of Grade 3 to 5 related to AB-16B5 ([9]; Grade 3 infusion related reaction and Grade 3 rash): 2 | deaths ([9]; Subjects 004 and 014, associated with progression of the disease): Two deaths were reported | grade of drug-related AEs ([9]; in vivo): mainly of Grade 1 or 2 | most frequently reported AEs (all causalities) ([9]; in vivo): nausea, abdominal pain, back pain, vomiting, chills, dyspnea, constipation and pruritus | most frequently reported AEs related to AB-16B5 ([9]; in vivo): nausea, pruritus, headache and rash | relation of SAEs to AB-16B5 ([9]; in vivo): All SAEs were considered unrelated to AB-16B5; also recorded: none of which were judged related to the study treatment | AEs related (possibly, probably or definitely) to AB-16B5 ([9]; out of 167 AEs): 68 | subjects who discontinued the study due to an adverse event ([9]; two subjects (004 and 011)): 13% | AUC 0-t ([10]; Cycle 1, 1.5 mg/kg (N = 1)): 230,321 ng * h/mL | Cmax ([10]; Cycle 1, 1.5 mg/kg (N = 1)): 17,958 ng/mL | Thalf ([10]; Cycle 1, 1.5 mg/kg (N = 1)): 9.35 h | Tmax ([10]; Cycle 1, 1.5 mg/kg (N = 1)): 1.17 h | AUC 0-t ([10]; Cycle 1, 3.0 mg/kg (N = 1)): 645,602 ng * h/mL | Cmax ([10]; Cycle 1, 3.0 mg/kg (N = 1)): 50,736 ng/mL | Thalf ([10]; Cycle 1, 3.0 mg/kg (N = 1)): 7.39 h | Tmax ([10]; Cycle 1, 3.0 mg/kg (N = 1)): 1.08 h | AUC 0-t ([10]; Cycle 1, 6.0 mg/kg (N = 3)): 1,357,773 ng * h/mL | Cmax ([10]; Cycle 1, 6.0 mg/kg (N = 3)): 117,663 ng/mL | Thalf ([10]; Cycle 1, 6.0 mg/kg (N = 3)): 6.99 h | Tmax ([10]; Cycle 1, 6.0 mg/kg (N = 3)): 1.00 h | AUC 0-t ([10]; Cycle 1, 9.0 mg/kg (N = 3)): 2,083,091 ng * h/mL | Cmax ([10]; Cycle 1, 9.0 mg/kg (N = 3)): 162,103 ng/mL | Thalf ([10]; Cycle 1, 9.0 mg/kg (N = 3)): 10.78 h | Tmax ([10]; Cycle 1, 9.0 mg/kg (N = 3)): 2.00 h | AUC 0-t ([10]; Cycle 1, 12.0 mg/kg (N = 7)): 4,045,786 ng * h/mL | Cmax ([10]; Cycle 1, 12.0 mg/kg (N = 7)): 256,977 ng/mL | Thalf ([10]; Cycle 1, 12.0 mg/kg (N = 7)): 11.99 h | Tmax ([10]; Cycle 1, 12.0 mg/kg (N = 7)): 1.12 h | increase of mean Cmax and AUC0-t with the dose ([10]; Cycle 1, dose range of 3.0 to 12.0 mg/kg): dose proportional | AUC 0-t ([10]; Cycle 2, 1.5 mg/kg (N = 1)): 188,584 ng * h/mL | Cmax ([10]; Cycle 2, 1.5 mg/kg (N = 1)): 15,662 ng/mL | Thalf ([10]; Cycle 2, 1.5 mg/kg (N = 1)): 7.97 h | Tmax ([10]; Cycle 2, 1.5 mg/kg (N = 1)): 1.00 h | AUC 0-t ([10]; Cycle 2, 3.0 mg/kg (N = 1)): 688,934 ng * h/mL | Cmax ([10]; Cycle 2, 3.0 mg/kg (N = 1)): 61,466 ng/mL | Thalf ([10]; Cycle 2, 3.0 mg/kg (N = 1)): 6.82 h | Tmax ([10]; Cycle 2, 3.0 mg/kg (N = 1)): 1.05 h | AUC 0-t ([10]; Cycle 2, 6.0 mg/kg (N = 3)): 1,351,156 ng * h/mL | Cmax ([10]; Cycle 2, 6.0 mg/kg (N = 3)): 120,466 ng/mL | Thalf ([10]; Cycle 2, 6.0 mg/kg (N = 3)): 7.70 h | Tmax ([10]; Cycle 2, 6.0 mg/kg (N = 3)): 1.03 h | AUC 0-t ([10]; Cycle 2, 9.0 mg/kg (N = 3)): 2,459,988 ng * h/mL | Cmax ([10]; Cycle 2, 9.0 mg/kg (N = 3)): 163,840 ng/mL | Thalf ([10]; Cycle 2, 9.0 mg/kg (N = 3)): 13.75 h | Tmax ([10]; Cycle 2, 9.0 mg/kg (N = 3)): 1.08 h | AUC 0-t ([10]; Cycle 2, 12.0 mg/kg (N = 7)): 4,147,243 ng * h/mL | Cmax ([10]; Cycle 2, 12.0 mg/kg (N = 7)): 230,268 ng/mL | Thalf ([10]; Cycle 2, 12.0 mg/kg (N = 7)): 21.04 h | Tmax ([10]; Cycle 2, 12.0 mg/kg (N = 7)): 1.04 h | increase of mean Cmax and AUC0-t with the dose ([10]; Cycle 2, dose range of 3.0 to 12.0 mg/kg): dose proportional | systemic exposure versus dose ([10]; across all dose levels): increased in a dose proportional manner | accumulation of AB-16B5 ([10]; between Cycle 1 and Cycle 2): No significant accumulation | level of CEA ([11]; circulating): remained stable or decreased in few patients | tumor biomarker levels ([11]; circulating CA 15-3, CA-125, CA 19-9, CEA, LDH, PSA, correlated with disease progression): increased over time
